Assay results as given in publication PMC6806390.

Target: T1, Myoglobin from Horse Heart (Sigma M-9267) (horse), P68082
T1 chain: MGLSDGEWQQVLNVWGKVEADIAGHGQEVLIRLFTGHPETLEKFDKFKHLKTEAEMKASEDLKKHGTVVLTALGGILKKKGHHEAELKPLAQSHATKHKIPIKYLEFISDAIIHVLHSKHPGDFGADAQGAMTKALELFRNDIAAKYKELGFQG
Assay: SDS-PAGE of the methanol precipitate
Settings: remark: other sources report otherwise

B1: Myoglobin from Horse Heart (Sigma M-9267), P68082 1-154 (natural protein)
chain: MGLSDGEWQQVLNVWGKVEADIAGHGQEVLIRLFTGHPETLEKFDKFKHLKTEAEMKASEDLKKHGTVVLTALGGILKKKGHHEAELKPLAQSHATKHKIPIKYLEFISDAIIHVLHSKHPGDFGADAQGAMTKALELFRNDIAAKYKELGFQG
  stoichiometry N: 3
